# In US20260242735A1 (UNIVERSIT T BASEL, published 2026):
# B1: Refmab #4 (antibody, human IgG1, V domains shown)
# VH: QVQLVQSGAEVKKPGESVKVSCKASGYTFTNYGMNWVKQAPGQGLEWMGWINTYTGEPTYADKFQGRVTMTTDTSTSTAYMEIRNLGGDDTAVYYCARWSWSDGYYVYFDYWGQGTSVTVSS
# VL: DIVMTQSPDSLTVSLGERTTINCKSSQSVLDSSTNKNSLAWYQQKPGQPPKLLLSWASTRESGIPDRFSGSGSGTDFTLTIDSPQPEDSATYYCQQSAHFPITFGQGTRLEIK
# B2: Refmab #1 (antibody, human IgG1, V domains shown)
# VH: EVQLVQSGAEVKKPGSSVKVSCKASGYTITDSNIHWVRQAPGQSLEWIGYIYPYNGGTDYNQKFKNRATLTVDNPTNTAYMELSSLRSEDTAFYYCVNGNPWLAYWGQGTLVTVSS
# VL: DIQLTQSPSTLSASVGDRVTITCRASESLDNYGIRFLTWFQQKPGKAPKLLMYAASNQGSGVPSRFSGSGSGTEFTLTISSLQPDDFATYYCQQTKEVPWSFGQGTKVEVK
# notes: also called hP67.6; Absolute Antibody Cat. No. Ab00283-10.0
# B3: Refmab #6 (antibody, V domains shown)
# VH: QVQLQQPGAEVVKPGASVKMSCKASGYTFTSYYIHWIKQTPGQGLEWVGVIYPGNDDISYNQKFQGKATLTADKSSTTAYMQLSSLTSEDSAVYYCAREVRLRYFDVWGQGTTVTVSS
# VL: EIVLTQSPGSLAVSPGERVTMSCKSSQSVFFSSSQKNYLAWYQQIPGQSPRLLIYWASTRESGVPDRFTGSGSGTDFTLTISSVQPEDLAIYYCHQYLSSRTFGQGTKLEIK
# notes: The alanine scan used IgG or Fab
# B4: Refmab #6 (antibody, human IgG1, V domains shown)
# VH: B3 VH
# VL: B3 VL
# B5: Refmab #3 (antibody, human IgG1, V domains shown)
# VH: QVQLVQSGAEVKKPGSSVKVSCKASGYTFTDYNMHWVRQAPGQGLEWIGYIYPYNGGTGYNQKFKSKATITADESTNTAYMELSSLRSEDTAVYYCARGRPAMDYWGQGTLVTVSS
# VL: DIQMTQSPSSLSASVGDRVTITCRASESVDNYGISFMNWFQQKPGKAPKLLIYAASNQGSGVPSRFSGSGSGTDFTLTISSLQPDDFATYYCQQSKEVPWTFGQGTKVEIK
# B6: Refmab #5 (antibody, V domains shown)
# VH: QVQLVQSGAEVKKPGASVKVSCKASGYTFTNYDINWVRQAPGQGLEWIGWIYPGDGSTKYNEKFKAKATLTADTSTSTAYMELRSLRSDDTAVYYCASGYEDAMDYWGQGTTVTVSS
# VL: DIQMTQSPSSLSASVGDRVTINCKASQDINSYLSWFQQKPGKAPKTLIYRANRLVDGVPSRFSGSGSGQDYTLTISSLQPEDFATYYCLQYDEFPLTFGGGTKVEIK
# notes: as for B3
# B7: Refmab #5 (antibody, human IgG1, V domains shown)
# VH: B6 VH
# VL: B6 VL
# Tests used:
# [1] = target: human CD33 P48F (human, UniProt P20138 18-364); assay: flow cytometry, transfected cells
# [2] = target: human CD33 Y50G (human, UniProt P20138 18-364); assay: flow cytometry, transfected cells
# [3] = target: human CD33 Y50L (human, UniProt P20138 18-364); assay: flow cytometry, transfected cells
# [4] = target: human CD33 Y50Q (human, UniProt P20138 18-364); assay: flow cytometry, transfected cells
# [5] = target: human CD33 P48W (human, UniProt P20138 18-364); assay: flow cytometry, transfected cells
# [6] = target: human CD33 P48H (human, UniProt P20138 18-364); assay: flow cytometry, transfected cells
# [7] = target: human CD33 Y50S (human, UniProt P20138 18-364); assay: flow cytometry, transfected cells
# [8] = target: human CD33 Y50V (human, UniProt P20138 18-364); assay: flow cytometry, transfected cells
# Chain of human CD33 Y50V (P20138 18-364 Y50V limits assumed): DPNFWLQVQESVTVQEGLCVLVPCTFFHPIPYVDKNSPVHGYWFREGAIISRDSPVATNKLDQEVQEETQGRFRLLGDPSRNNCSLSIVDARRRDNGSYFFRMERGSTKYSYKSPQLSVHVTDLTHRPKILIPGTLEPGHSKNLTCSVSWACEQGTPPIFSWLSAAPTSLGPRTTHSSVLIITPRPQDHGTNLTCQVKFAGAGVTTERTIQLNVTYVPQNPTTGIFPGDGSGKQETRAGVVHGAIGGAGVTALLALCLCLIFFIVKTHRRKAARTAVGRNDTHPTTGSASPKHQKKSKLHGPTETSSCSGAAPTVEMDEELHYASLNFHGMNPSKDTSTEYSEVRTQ
# [9] = target: human CD33 N20K (human, UniProt P20138 18-364); assay: flow cytometry, transfected cells
# [10] = target: human CD33 N20D (human, UniProt P20138 18-364); assay: flow cytometry, transfected cells
# [11] = target: human CD33 P19K (human, UniProt P20138 18-364); assay: flow cytometry, transfected cells
# Chain of human CD33 P19K (P20138 18-364 P19K limits assumed): as the sequence (P20138 18-364 Y50V limits assumed) above, with P2K, V33Y counted along it
# [12] = target: human CD33 P46H (human, UniProt P20138 18-364); assay: flow cytometry, transfected cells
# [13] = target: human CD33 F21L (human, UniProt P20138 18-364); assay: flow cytometry, transfected cells
# Chain of human CD33 F21L (P20138 18-364 F21L limits assumed): as the sequence (P20138 18-364 Y50V limits assumed) above, with F4L, V33Y counted along it
# [14] = target: human CD33 F21V (human, UniProt P20138 18-364); assay: flow cytometry, transfected cells
# Chain of human CD33 F21V (P20138 18-364 F21V limits assumed): as the sequence (P20138 18-364 Y50V limits assumed) above, with F4V, V33Y counted along it
# [15] = target: human CD33 P301A (human, UniProt P20138 18-364); assay: flow cytometry, HEK293-T, alanine scan;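 note: transiently transfected HEK293-T cells expressing single alanine mutants of human CD33 (alanine residues changed to serine), antibody binding fluorescence minus background, relative to wild type CD33, mean of duplicates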
# Chain of human CD33 P301A (P20138 18-364 P301A limits assumed): as the sequence (P20138 18-364 Y50V limits assumed) above, with V33Y, P284A counted along it
# Description: (§1) An alanine scan on human CD33 was performed to the determine the residues on CD33 that are involved in binding to the antibodies investigated. […] Briefly, a mutation library of CD33 was created by high-throughput, site-directed mutagenesis. Each residue was individually mutated to alanine, with alanine codons mutated to serine. The mutant library was arrayed in 384-well microplates and transiently transfected into HEK293-T. Following transfection, cells were incubated with the indicated antibodies (IgG or Fab) at concentrations pre-determined using an independent immunofluorescence titration curve on wild type CD33. […] Binding of each antibody to each mutant clone was determined in duplicates. For each point, background fluorescence was subtracted from the raw data, which were then normalized to antibody reactivity with wild type CD33.
# (§2) Critical residues for antibody binding (outlined in dark grey) were residues whose mutations led to a binding of the test Abs of less than 20%. Additional secondary residues (outlined in light grey) were identified that led to a binding of the test Abs of between 20 and 40% as compared to the wild type CD33.
# [16] = target: human CD33 G327A (human, UniProt P20138 18-364); assay: flow cytometry, HEK293-T, alanine scan;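 note: transiently transfected HEK293-T cells expressing single alanine mutants of human CD33 (alanine residues changed to serine), antibody binding fluorescence minus background, relative to wild type CD33, mean of duplicates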
# Description: as §1, §2
# [17] = target: human CD33 C276A (human, UniProt P20138 18-364); assay: flow cytometry, HEK293-T, alanine scan;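 note: transiently transfected HEK293-T cells expressing single alanine mutants of human CD33 (alanine residues changed to serine), antibody binding fluorescence minus background, relative to wild type CD33, mean of duplicates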
# Description: as §1, §2
# [18] = target: human CD33 C325A (human, UniProt P20138 18-364); assay: flow cytometry, HEK293-T, alanine scan;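 note: transiently transfected HEK293-T cells expressing single alanine mutants of human CD33 (alanine residues changed to serine), antibody binding fluorescence minus background, relative to wild type CD33, mean of duplicates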
# Chain of human CD33 C325A (P20138 18-364 C325A limits assumed): as the sequence (P20138 18-364 Y50V limits assumed) above, with V33Y, C308A counted along it
# Description: as §1, §2
# [19] = target: human CD33 H310A (human, UniProt P20138 18-364); assay: flow cytometry, HEK293-T, alanine scan
# Description: as §1, §2
# [20] = target: human CD33 G318A (human, UniProt P20138 18-364); assay: flow cytometry, HEK293-T, alanine scan
# Chain of human CD33 G318A (P20138 18-364 G318A limits assumed): as the sequence (P20138 18-364 Y50V limits assumed) above, with V33Y, G301A counted along it
# Description: as §1, §2
# [21] = target: human CD33 D335A (human, UniProt P20138 18-364); assay: flow cytometry, HEK293-T, alanine scan
# Chain of human CD33 D335A (P20138 18-364 D335A limits assumed): as the sequence (P20138 18-364 Y50V limits assumed) above, with V33Y, D318A counted along it
# Description: as §1, §2
# [22] = target: human CD33 Q311A (human, UniProt P20138 18-364); assay: flow cytometry, HEK293-T, alanine scan
# Description: as §1, §2
# [23] = target: human CD33 K312A (human, UniProt P20138 18-364); assay: flow cytometry, HEK293-T, alanine scan
# Description: as §1, §2
# [24] = target: human CD33 T322A (human, UniProt P20138 18-364); assay: flow cytometry, HEK293-T, alanine scan
# Description: as §1, §2
# [25] = target: human CD33 G304A (human, UniProt P20138 18-364); assay: flow cytometry, HEK293-T, alanine scan
# Chain of human CD33 G304A (P20138 18-364 G304A limits assumed): as the sequence (P20138 18-364 Y50V limits assumed) above, with V33Y, G287A counted along it
# Description: as §1, §2
# [26] = target: human CD33 S307A (human, UniProt P20138 18-364); assay: flow cytometry, HEK293-T, alanine scan
# Description: as §1, §2
# [27] = target: human CD33 K283A (human, UniProt P20138 18-364); assay: flow cytometry, HEK293-T, alanine scan
# Chain of human CD33 K283A (P20138 18-364 K283A limits assumed): as the sequence (P20138 18-364 Y50V limits assumed) above, with V33Y, K266A counted along it
# Description: as §1, §2
# [28] = target: human CD33 E333A (human, UniProt P20138 18-364); assay: flow cytometry, HEK293-T, alanine scan
# Description: as §1, §2
# [29] = target: human CD33 T284A (human, UniProt P20138 18-364); assay: flow cytometry, HEK293-T, alanine scan
# Chain of human CD33 T284A (P20138 18-364 T284A limits assumed): as the sequence (P20138 18-364 Y50V limits assumed) above, with V33Y, T267A counted along it
# Description: as §1, §2
# [30] = target: human CD33 I281A (human, UniProt P20138 18-364); assay: flow cytometry, HEK293-T, alanine scan
# Description: as §1, §2
# [31] = target: human CD33 T331A (human, UniProt P20138 18-364); assay: flow cytometry, HEK293-T, alanine scan
# Description: as §1, §2
# [32] = target: human CD33 Y340A (human, UniProt P20138 18-364); assay: flow cytometry, HEK293-T, alanine scan
# Chain of human CD33 Y340A (P20138 18-364 Y340A limits assumed): as the sequence (P20138 18-364 Y50V limits assumed) above, with V33Y, Y323A counted along it
# Description: as §1, §2
# [33] = target: human CD33 F345A (human, UniProt P20138 18-364); assay: flow cytometry, HEK293-T, alanine scan
# Description: as §1, §2
# [34] = target: human CD33 T292A (human, UniProt P20138 18-364); assay: flow cytometry, HEK293-T, alanine scan
# Description: as §1, §2
# [35] = target: human CD33 V282A (human, UniProt P20138 18-364); assay: flow cytometry, HEK293-T, alanine scan
# Description: as §1, §2
# [36] = target: human CD33 W22S (human, UniProt P20138 18-364); assay: flow cytometry, transfected cells
# Chain of human CD33 W22S (P20138 18-364 W22S limits assumed): as the sequence (P20138 18-364 Y50V limits assumed) above, with W5S, V33Y counted along it
# [37] = target: human CD33 W22G (human, UniProt P20138 18-364); assay: flow cytometry, transfected cells
# [38] = target: human CD33 I47P (human, UniProt P20138 18-364); assay: flow cytometry, transfected cells
# Chain of human CD33 I47P (P20138 18-364 I47P limits assumed): as the sequence (P20138 18-364 Y50V limits assumed) above, with I30P, V33Y counted along it
binder,measurement,setting,value
B1,binding result,[1],no binding (tested: below 20%)
same,binding result,[2],no binding (tested: below 20%)
same,binding result,[3],no binding (tested: below 20%)
same,binding result,[4],no binding (tested: below 20%)
same,binding result,[5],no binding (tested: below 20%)
same,binding result,[6],no binding (tested: below 20%)
same,binding result,[7],no binding (tested: below 20%)
same,binding result,[8],no binding (tested: below 20%)
B2,binding result,[9],no binding (tested: below 20%)
same,binding result,[10],no binding (tested: below 20%)
same,binding result,[11],no binding (tested: below 20%)
same,binding result,[12],no binding (tested: below 20%)
same,binding result,[13],no binding (tested: below 20%)
same,binding result,[14],no binding (tested: below 20%)
B3,Mean % WT Binding,[15],105 % WT binding
same,Mean % WT Binding,[16],92.1 % WT binding
same,Mean % WT Binding,[17],100 % WT binding
same,Mean % WT Binding,[18],111 % WT binding
same,Mean % WT Binding,[19],94.9 % WT binding
same,Mean % WT Binding,[20],89.1 % WT binding
same,Mean % WT Binding,[21],98.2 % WT binding
same,Mean % WT Binding,[22],88.7 % WT binding
same,Mean % WT Binding,[23],94.5 % WT binding
same,Mean % WT Binding,[24],110 % WT binding
same,Mean % WT Binding,[25],100 % WT binding
same,Mean % WT Binding,[26],116 % WT binding
same,Mean % WT Binding,[27],88.6 % WT binding
same,Mean % WT Binding,[28],98.7 % WT binding
same,Mean % WT Binding,[29],105 % WT binding
same,Mean % WT Binding,[30],104 % WT binding
same,Mean % WT Binding,[31],90.9 % WT binding
same,Mean % WT Binding,[32],101 % WT binding
same,Mean % WT Binding,[33],98.4 % WT binding
same,Mean % WT Binding,[34],113 % WT binding
same,Mean % WT Binding,[35],108 % WT binding
B4,binding result,[36],no binding (tested: below 20%)
same,binding result,[37],no binding (tested: below 20%)
B5,binding result,[38],no binding (tested: below 20%)
same,binding result,[9],no binding (tested: below 20%)
same,binding result,[36],no binding (tested: below 20%)
same,binding result,[10],no binding (tested: below 20%)
same,binding result,[11],no binding (tested: below 20%)
same,binding result,[37],no binding (tested: below 20%)
same,binding result,[12],no binding (tested: below 20%)
same,binding result,[13],no binding (tested: below 20%)
same,binding result,[14],no binding (tested: below 20%)
B6,Mean % WT Binding,[15],90.1 % WT binding
same,Mean % WT Binding,[16],98.7 % WT binding
same,Mean % WT Binding,[17],95.4 % WT binding
same,Mean % WT Binding,[18],107 % WT binding
same,Mean % WT Binding,[19],91.3 % WT binding
same,Mean % WT Binding,[20],87.1 % WT binding
same,Mean % WT Binding,[21],86.2 % WT binding
same,Mean % WT Binding,[22],126 % WT binding
same,Mean % WT Binding,[23],94.7 % WT binding
same,Mean % WT Binding,[24],100 % WT binding
same,Mean % WT Binding,[25],79.1 % WT binding
same,Mean % WT Binding,[26],83 % WT binding
same,Mean % WT Binding,[27],82.9 % WT binding
same,Mean % WT Binding,[28],121 % WT binding
same,Mean % WT Binding,[29],103 % WT binding
same,Mean % WT Binding,[30],115 % WT binding
same,Mean % WT Binding,[31],88.1 % WT binding
same,Mean % WT Binding,[32],88.6 % WT binding
same,Mean % WT Binding,[33],86.4 % WT binding
same,Mean % WT Binding,[34],85.1 % WT binding
same,Mean % WT Binding,[35],112 % WT binding
B7,binding result,[1],no binding (tested: below 20%)
same,binding result,[2],no binding (tested: below 20%)
same,binding result,[38],no binding (tested: below 20%)
same,binding result,[3],no binding (tested: below 20%)
same,binding result,[4],no binding (tested: below 20%)
same,binding result,[5],no binding (tested: below 20%)
same,binding result,[6],no binding (tested: below 20%)
same,binding result,[7],no binding (tested: below 20%)
same,binding result,[8],no binding (tested: below 20%)
